Data: patent publication US20250333506A1 (NEW YORK UNIVERSITY, published 2025)
Positions count from the first letter of the chain named. Read-outs that look alike come from different tables or passages of the source. Blank lines part the entries; values can stand above or below the binder they belong to.

Experiments:
[1] = target: T1, Human D1A/G8 (biotinylated (AviTag)); assay: bead binding assay: biotinylated TCR-Fc on streptavidin beads, IgG titrated, flow cytometry
T1 construct: may be the same protein as m34; also called human Delta1A / Gamma8 TCR-Fc fusion protein
T1 sequence (delta chain, as listed by the source, chain 1 of 2): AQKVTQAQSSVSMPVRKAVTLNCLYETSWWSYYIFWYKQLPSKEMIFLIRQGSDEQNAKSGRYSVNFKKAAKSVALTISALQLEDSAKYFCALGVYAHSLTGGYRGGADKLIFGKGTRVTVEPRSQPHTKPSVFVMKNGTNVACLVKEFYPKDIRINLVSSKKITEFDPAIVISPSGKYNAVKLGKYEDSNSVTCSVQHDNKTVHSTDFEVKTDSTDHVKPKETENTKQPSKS
T1 sequence (gamma chain, as listed by the source, chain 2 of 2): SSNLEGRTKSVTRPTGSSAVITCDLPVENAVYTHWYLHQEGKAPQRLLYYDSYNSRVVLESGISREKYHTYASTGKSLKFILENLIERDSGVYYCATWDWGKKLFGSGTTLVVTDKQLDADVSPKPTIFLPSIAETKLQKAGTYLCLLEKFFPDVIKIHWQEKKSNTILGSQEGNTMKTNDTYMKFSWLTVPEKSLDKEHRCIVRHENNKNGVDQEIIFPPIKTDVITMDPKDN

[2] = target: T2, cynomolgus Gamma/Delta1A TCR-Fc fusion protein (cynomolgus monkey, biotinylated in vitro with recombinant BirA (AviTag)); assay: bead binding assay (TCR-Fc on streptavidin beads, IgG titrated, flow cytometry); apparent KD, s.d. of triplicates
T2 construct: First chain = delta, second = gamma; also called Cyno D1; cyno D1; not shown: Fc portion of mouse IgG, then AviTag and His6 tag at the C-terminus; Fc portion of mouse IgG

[3] = target: T2, cynomolgus Gamma/Delta1A TCR-Fc fusion …; assay: bead binding assay: biotinylated TCR-Fc on streptavidin beads, IgG titrated, flow cytometry
[4] = target: T3, Human D1A/G3 (biotinylated (AviTag)); assay: as above
T3 construct: also called human Delta1A / Gamma3 TCR-Fc fusion protein
T3 sequence (delta chain, as listed by the source, chain 1 of 2): as the sequence (delta chain, as listed by the source, chain 1 of 2) above
T3 sequence (gamma chain, as listed by the source, chain 2 of 2): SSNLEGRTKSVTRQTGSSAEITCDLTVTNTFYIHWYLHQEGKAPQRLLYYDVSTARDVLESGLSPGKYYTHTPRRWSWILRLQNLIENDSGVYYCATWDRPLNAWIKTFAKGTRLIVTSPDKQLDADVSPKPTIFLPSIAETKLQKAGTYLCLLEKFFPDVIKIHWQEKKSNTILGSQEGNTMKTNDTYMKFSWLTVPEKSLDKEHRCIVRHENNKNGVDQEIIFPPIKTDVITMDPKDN

[5] = target: T4, Cyno D2 (biotinylated (AviTag)); assay: as above
T4 construct: also called cynomolgus Gamma/Delta2; Cyno D2/G
T4 delta chain: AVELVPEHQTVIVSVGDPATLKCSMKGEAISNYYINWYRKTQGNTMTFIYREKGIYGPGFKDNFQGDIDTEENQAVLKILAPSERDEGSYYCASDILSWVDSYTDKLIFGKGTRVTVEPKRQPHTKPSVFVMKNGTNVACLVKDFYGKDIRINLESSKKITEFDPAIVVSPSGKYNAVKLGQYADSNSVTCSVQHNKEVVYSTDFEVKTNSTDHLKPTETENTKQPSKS
T4 gamma chain: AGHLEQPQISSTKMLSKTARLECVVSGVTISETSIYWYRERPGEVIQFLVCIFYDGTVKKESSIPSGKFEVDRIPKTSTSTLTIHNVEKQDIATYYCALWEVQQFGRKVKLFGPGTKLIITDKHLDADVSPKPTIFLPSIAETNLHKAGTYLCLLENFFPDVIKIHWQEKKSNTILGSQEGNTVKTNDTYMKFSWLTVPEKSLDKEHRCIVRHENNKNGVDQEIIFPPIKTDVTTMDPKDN

[6] = target: T4, Cyno D2; assay: as above
[7] = target: T4, Cyno D2; assay: as above
[8] = target: T4, Cyno D2; assay: as above
[9] = target: T2, cynomolgus Gamma/Delta1A TCR-Fc fusion …; assay: bead binding assay (TCR-Fc on streptavidin beads, IgG titrated, flow cytometry); apparent KD
[10] = target: T5, human Delta1 TCR (Fc fusion protein, Delta1 clone and gamma chain not stated); assay: bead binding titration, flow cytometry (MFI against antibody concentration)
T5 construct: also called Human Delta1 Fc fusion protein; human delta-1 chain

[11] = target: T5, human Delta1 TCR (Fc fusion protein, …); assay: bead binding assay: Fc fusion proteins on streptavidin-coated beads, IgG titrated, flow cytometry
[12] = target: T6, cynomolgus monkey Delta1 Fc fusion protein (Delta1 clone not stated); assay: as above
T6 construct: also called monkey (cyno) delta-1 chain; monkey Delta1 receptors

[13] = target: T2, cynomolgus Gamma/Delta1A TCR-Fc fusion …; assay: bead binding assay: biotinylated TCR-Fc on streptavidin beads, IgG titrated, flow cytometry; remark: listed apart in the source
[14] = target: T4, Cyno D2; assay: as above
[15] = target: T2, cynomolgus Gamma/Delta1A TCR-Fc fusion …; assay: as above; remark: listed apart in the source
[16] = target: T4, Cyno D2; assay: as above
[17] = target: T4, Cyno D2; assay: as above
[18] = target: T5, human Delta1 TCR (Fc fusion protein, …); assay: SPR: biotinylated TCR on a neutravidin-loaded Avicap chip, IgG flowed (OneStep, Pioneer instrument)
[19] = target: T4, Cyno D2; assay: bead binding assay: biotinylated TCR-Fc on streptavidin beads, IgG titrated, flow cytometry
[20] = target: T4, Cyno D2; assay: as above
[21] = target: T2, cynomolgus Gamma/Delta1A TCR-Fc fusion …; assay: as above; remark: listed apart in the source
[22] = target: T2, cynomolgus Gamma/Delta1A TCR-Fc fusion …; assay: as above; remark: listed apart in the source
[23] = target: T2, cynomolgus Gamma/Delta1A TCR-Fc fusion …; assay: as above; remark: listed apart in the source
[24] = target: T4, Cyno D2; assay: as above
[25] = target: T4, Cyno D2; assay: as above
[26] = target: T2, cynomolgus Gamma/Delta1A TCR-Fc fusion …; assay: as above; remark: listed apart in the source

B1: Delta1-23 (antibody, V domains shown)
VH: EVQLVESGGGLVQPGGSLRLSCAASGFTVSSSSIHWVRQAPGKGLEWVASIYSSSGYTYYADSVKGRFTISADTSKNTAYLQMNSLRAEDTAVYYCARDPGSYYWYYSGSAYEGYGLDYWGQGTLVTVSS
VL: DIQMTQSPSSLSASVGDRVTITCRASQSVSSAVAWYQQKPGKAPKLLIYAASSLQSGVPSRFSGSRSGTDFTLTISSLQPEDFATYYCQQQSKYPFLITFGQGTKVEIKR
notes: Tested in the human IgG format; also called anti-Delta1-23
binding result [1]: binds
Kd [2]: 1.3 nM
EC50 (read off the curve) [3]: ~5 nM
binding result [4]: binds
binding result [5]: no binding (tested: 100 nM)

B2: Delta1-30 (antibody, V domains shown)
VH: B1 VH
VL: DIQMTQSPSSLSASVGDRVTITCRASQSVSSAVAWYQQKPGKAPKLLIYSASSLYSGVPSRFSGSRSGTDFTLTISSLQPEDFATYYCQQSGDDLITFGQGTKVEIKR
binding result [6]: no binding (tested: 100 nM)

B3: Delta1-22 (antibody, V domains shown)
VH: B1 VH
VL: B1 VL with Q91R, K93R, P95Y, F96S
notes: Tested in the human IgG format
binding result [7]: no binding (tested: 100 nM)
Kd [2]: 0.61 nM

B9: Delta1-19 (antibody, V domains shown)
VH: B1 VH
VL: B1 VL with Q91M, S92D, K93R, Y94F, P95Y, F96S
notes: as for B3
binding result [16]: binds
Kd [2]: 0.25 nM

B10: Delta1-28 (antibody, V domains shown)
VH: B1 VH
VL: B1 VL with Q91W, S92M, K93R, Y94S, P95S, F96S, I98F
notes: as for B3
binding result [17]: no binding (tested: 100 nM)
Kd [2]: 0.36 nM

B12: Delta1-27 (antibody, V domains shown)
VH: B1 VH
VL: B1 VL with Q91S, K93R, Y94N, P95S, F96K
notes: as for B3
binding result [20]: no binding (tested: 100 nM)
Kd [9]: 0.78 nM

B14: Delta1-33 (antibody, V domains shown)
VH: B1 VH with V29F
VL: B1 VL
notes: also called anti-Delta1-33
EC50 (read off the curve) [22]: ~2 nM

B15: Delta1-40 (antibody, V domains shown)
VH: B1 VH with V29F, S30T
VL: B1 VL
notes: also called anti-Delta1-40
EC50 (read off the curve) [23]: ~2 nM

B18: Delta1-38 (antibody, V domains shown)
VH: B1 VH with V29F, S30T, S33D
VL: B1 VL
notes: also called anti-Delta1-38
EC50 (read off the curve) [26]: ~3 nM

Results, then the binder that gave them:

binding result [8]: no binding (tested: 100 nM)
Kd [9]: 0.34 nM
B4: Delta1-20 (antibody, V domains shown)
VH: B1 VH
VL: B1 VL with Q91Y, S92C, K93R, Y94K, P95S, F96S, I98F
notes: as for B3

EC50 (read off the curve) [10]: ~1 nM
Kd [9]: 2.7 nM
EC50 (read off the curve) [11]: 2 to 3 nM
EC50 (read off the curve) [12]: ~2 nM
B5: Delta1-41 (antibody, V domains shown)
VH: B1 VH with V29F, S31A, S32N, S33D
VL: B1 VL
notes: Tested in the human IgG format; also called anti-Delta1-41

EC50 (read off the curve) [13]: ~2 nM
B6: Delta1-37 (antibody, V domains shown)
VH: B1 VH with V29F, S30T, S31G
VL: B1 VL
notes: also called anti-Delta1-37

binding result [14]: no binding (tested: 100 nM)
Kd [2]: 1.74 nM
B7: Delta1-21 (antibody, V domains shown)
VH: B1 VH
VL: B1 VL with S92Q, K93R, Y94T, P95S, F96Y
notes: as for B3

EC50 (read off the curve) [15]: ~3 nM
B8: Delta1-34 (antibody, V domains shown)
VH: B1 VH with V29F, S31G, S32T, S33D
VL: B1 VL
notes: also called anti-Delta1-34

EC50 (read off the curve) [10]: ~0.5 nM
Kd [18]: 4.6 nM
binding result [19]: no binding (tested: 100 nM)
Kd [9]: 13.7 nM
B11: Delta1-17 (antibody, V domains shown)
VH: B1 VH with S102M
VL: B2 VL
notes: also called anti-Delta1-17; Delta-17

EC50 (read off the curve) [21]: ~3 nM
B13: Delta1-36 (antibody, V domains shown)
VH: B1 VH with V29F, S32N, S33D
VL: B1 VL
notes: also called anti-Delta1-36

binding result [24]: no binding (tested: 100 nM)
Kd [9]: 0.15 nM
B16: Delta1-18 (antibody, V domains shown)
VH: B1 VH
VL: B1 VL with Q91R, K93R, Y94V, P95Y, F96S, I98V
notes: as for B3

binding result [25]: no binding (tested: 100 nM)
Kd [9]: 30.4 nM
B17: Delta1-29 (antibody, V domains shown)
VH: B1 VH
VL: B2 VL with S50A, Y55Q
notes: as for B3
